{"source": "paper PMC11271275", "about": "“The structural insight into the functional modulation of human anion exchanger 3” (Nature Communications, 2024)", "molecules": {"B1": {"name": "human anion exchanger 3, cardiac isoform (hAE3) (natural protein, UniProt P48751-1 300-1232, looked up)", "chain": "GLAPILRRKKKKKKLDRRPHEVFVELNELMLDRSQEPHWRETARWIKFEEDVEEETERWGKPHVASLSFRSLLELRRTIAHGAALLDLEQTTLPGIAHLVVETMIVSDQIRPEDRASVLRTLLLKHSHPNDDKDSGFFPRNPSSSSMNSVLGNHHPTPSHGPDGAVPTMADDLGEPAPLWPHDPDAKEKPLHMPGGDGHRGKSLKLLEKIPEDAEATVVLVGCVPFLEQPAAAFVRLNEAVLLESVLEVPVPVRFLFVMLGPSHTSTDYHELGRSIATLMSDKLFHEAAYQADDRQDLLSAISEFLDGSIVIPPSEVEGRDLLRSVAAFQRELLRKRREREQTKVEMTTRGGYTAPGKELSLELGGSEATPEDDPLLRTGSVFGGLVRDVRRRYPHYPSDLRDALHSQCVAAVLFIYFAALSPAITFGGLLGEKTEGLMGVSELIVSTAVLGVLFSLLGAQPLLVVGFSGPLLVFEEAFFKFCRAQDLEYLTGRVWVGLWLVVFVLALVAAEGSFLVRYISPFTQEIFAFLISLIFIYETFYKLYKVFTEHPLLPFYPPEGALEGSLDAGLEPNGSALPPTEGPPSPRNQPNTALLSLILMLGTFFIAFFLRKFRNSRFLGGKARRIIGDFGIPISILVMVLVDYSITDTYTQKLTVPTGLSVTSPDKRSWFIPPLGSARPFPPWMMVAAAVPALLVLILIFMETQITALIVSQKARRLLKGSGFHLDLLLIGSLGGLCGLFGLPWLTAATVRSVTHVNALTVMRTAIAPGDKPQIQEVREQRVTGVLIASLVGLSIVMGAVLRRIPLAVLFGIFLYMGVTSLSGIQLSQRLLLILMPAKHHPEQPYVTKVKTWRMHLFTCIQLGCIALLWVVKSTAASLAFPFLLLLTVPLRHCLLPRLFQDRELQALDSEDAEPNFDEDGQDEYNELHMPV", "notes": "Anion exchanger 3 (AE3, SLC4A3), human, cardiac isoform; amino acids 300-1232 by the numbering of UniProt P48751-1 (results); the methods name the cDNA as human Cardiac Anion Exchanger 3, UniProt P48751-2; the introduction says cAE3 lacks residues 1-296 of bAE3; A TEV protease site follows the N-terminal tags in the modified pCAGGS vector; no cleavage is described; The N-terminal domain was not …"}}, "key": {"[1]": {"target": "hAE3^NTD2^TMD chimera (NTD of hAE3 fused to TMD of hAE2) (human) (UniProt P04920)", "assay": "cryo-EM structure; hAE3^NTD2^TMD chimera in GDN; 300 kV Titan Krios, C2 symmetry; 3.35 Å; TMDs inward-facing"}, "AE2 (human SLC4A2) [2]": {"target": "T1, AE2 (human SLC4A2) (Homo sapiens, UniProt P04920)", "T1 sequence (P04920 1-1241)": "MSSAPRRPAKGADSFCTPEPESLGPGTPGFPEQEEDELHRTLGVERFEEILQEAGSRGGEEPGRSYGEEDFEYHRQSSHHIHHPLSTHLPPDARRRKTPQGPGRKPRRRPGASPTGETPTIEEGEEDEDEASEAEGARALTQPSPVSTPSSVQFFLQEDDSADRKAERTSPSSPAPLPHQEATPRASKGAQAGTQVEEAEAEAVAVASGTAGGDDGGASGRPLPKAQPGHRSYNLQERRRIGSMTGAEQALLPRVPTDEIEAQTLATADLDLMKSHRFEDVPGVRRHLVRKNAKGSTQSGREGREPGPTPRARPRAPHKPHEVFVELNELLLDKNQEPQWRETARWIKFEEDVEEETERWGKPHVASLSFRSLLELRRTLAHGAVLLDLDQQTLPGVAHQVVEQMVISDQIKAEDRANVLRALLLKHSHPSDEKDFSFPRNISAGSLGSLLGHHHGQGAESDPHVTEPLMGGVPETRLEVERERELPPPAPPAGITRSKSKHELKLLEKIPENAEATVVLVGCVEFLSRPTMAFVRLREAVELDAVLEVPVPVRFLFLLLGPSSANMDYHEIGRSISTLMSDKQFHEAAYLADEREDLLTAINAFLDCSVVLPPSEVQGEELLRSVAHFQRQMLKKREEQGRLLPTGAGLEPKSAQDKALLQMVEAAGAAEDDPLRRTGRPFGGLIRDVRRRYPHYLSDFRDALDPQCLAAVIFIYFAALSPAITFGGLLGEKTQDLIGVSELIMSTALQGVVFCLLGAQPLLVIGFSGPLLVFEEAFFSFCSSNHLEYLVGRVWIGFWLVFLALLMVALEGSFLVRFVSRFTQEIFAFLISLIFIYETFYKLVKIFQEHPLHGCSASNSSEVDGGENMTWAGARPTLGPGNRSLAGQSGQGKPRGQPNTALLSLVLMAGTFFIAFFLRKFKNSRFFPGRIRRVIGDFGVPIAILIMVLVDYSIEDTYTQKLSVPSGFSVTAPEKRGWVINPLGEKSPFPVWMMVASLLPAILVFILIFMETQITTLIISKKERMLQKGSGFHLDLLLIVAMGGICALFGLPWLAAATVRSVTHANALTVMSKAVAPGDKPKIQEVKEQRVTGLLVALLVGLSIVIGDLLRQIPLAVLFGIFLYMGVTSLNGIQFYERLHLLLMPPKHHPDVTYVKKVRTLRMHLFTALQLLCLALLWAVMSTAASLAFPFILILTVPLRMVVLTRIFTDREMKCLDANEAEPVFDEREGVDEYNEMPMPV", "conditions": "Cl-/HCO3- exchange; 25 mM NaHCO3, pH 7.4"}, "AE2 (human SLC4A2) [3]": {"target": "T1, AE2 (human SLC4A2)", "assay": "BCECF intracellular pH assay on Cl- reintroduction, SLC4A2-KO HEK293F cells", "assay_type": "cell-based", "set-up": "overexpressed in SLC4A2-KO HEK293F cells; P04920-1 printed for the AE2 part of the chimera", "conditions": "40 µM DIDS; 25 mM NaHCO3, pH 7.4"}, "[4]": {"target": "the molecule itself", "assay": "SEC + other: 200 kV cryo-EM analysis; Superose 6 Increase 10/300 GL, 150 mM NaCl, 20 mM HEPES pH 7.4, 0.01% GDN, 4 °C; protein solubilised with LMNG"}}}
{"molecule": "hAE3^NTD2^TMD chimera (NTD of hAE3 fused to TMD of hAE2) (from UniProt P04920-1 672-1241)", "values": [{"measurement": "stoichiometry N", "setting": "[1]", "value": 2}]}
{"molecule": "O=C(O)O", "note": "[HCO3^−]", "values": [{"measurement": "BCECF intracellular pH assay on Cl- reintroduction, SLC4A2-KO HEK293F cells", "setting": "AE2 (human SLC4A2) [2]", "value": "a lower pH-modulating function than that observed for AE2"}]}
{"molecule": "O=S(=O)(O)c1cc(N=C=S)ccc1/C=C/c1ccc(N=C=S)cc1S(=O)(=O)O", "note": "[DIDS, 4,4’-diisothiocyanatostilbene-2,2’-disulfonate]", "values": [{"measurement": "inhibition at 40 μM", "setting": "AE2 (human SLC4A2) [3]", "value": "activities of AE2 and AE3 could be inhibited by adding DIDS"}]}
{"molecule": "B1", "values": [{"measurement": "stoichiometry N", "setting": "[4]", "value": 2}]}
